Laboratory results published in patent publication US20110028688A1 (published 2011).
Positions count from the first letter of the chain named. In names and notes the source's numbering stands.

T1: human OX40 receptor (hOX40), residues 29-170 (human, UniProt P43489 29-170, in the competition ELISA only: biotinylated with a 4 fold molar excess of biotin-NHS-LC (sites not given))
T1 construct: Secreted from High Five insect cells (baculovirus), His-tag cleaved; also called hOX40 receptor; monomeric hOX40
T1 sequence: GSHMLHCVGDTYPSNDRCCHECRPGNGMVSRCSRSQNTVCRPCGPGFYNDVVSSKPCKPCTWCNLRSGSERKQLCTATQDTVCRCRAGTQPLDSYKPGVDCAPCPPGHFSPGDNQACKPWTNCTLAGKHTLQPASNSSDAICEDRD

T2: human OX40 receptor (hOX40), residues 29-170 (human, UniProt P43489 29-170, biotinylated with biotin-NHS-LC in the competition ELISA (Table II); not biotinylated in the crystals (Tables 6 and 7))
T2 construct: Monomeric soluble receptor fragment; also called hOX40Receptor; HOX40 receptor
T2 sequence: T1 sequence

B1: human OX40L residues 51-183 N90D, N114D, N166A (ligand)
chain: GSHMQVSHRYPRIQSIKVQFTEYKKEKGFILTSQKEDEIMKVQDNSVIINCDGFYLISLKGYFSQEVDISLHYQKDEEPLFQLKKVRSVNSLMVASLTYKDKVYLNVTTDNTSLDDFHVAGGELILIHQNPGEFCVL
notes: Single alanine mutant in the N90D, N114D background
B2: human OX40L residues 51-183 N90D, N114D, F180A (ligand)
chain: B1 chain with A120N, F134A
notes: as for B1
B3: human OX40L residues 51-183 N90D, N114D, D162A (ligand)
chain: B1 chain with D116A, A120N
notes: as for B1
B4: human OX40L residues 51-183 N90D, N114D, Q80A (ligand)
chain: B1 chain with Q34A, A120N
notes: as for B1
B5: human OX40L (hOX40L), wild type, residues 51-183 (ligand)
chain: B1 chain with D44N, D68N, A120N
notes: Homotrimer; also called WT; OX40 ligand
B6: human OX40L Q80A in the N90D, N114D background, residues 51-183 (ligand)
chain: B1 chain with Q34A, A120N
notes: Properly assembled trimer by size exclusion chromatography
B7: human OX40L T144A in the N90D, N114D background, residues 51-183 (ligand)
chain: B1 chain with T98A, A120N
notes: as for B6
B8: human OX40L D162A in the N90D, N114D background, residues 51-183 (ligand)
chain: B1 chain with D116A, A120N
notes: as for B6
B9: human OX40L E123A in the N90D, N114D background, residues 51-183 (ligand)
chain: B1 chain with E77A, A120N
notes: as for B6
B10: human OX40L (hOX40L) N90D, N114D double glycosylation mutant, residues 51-183 (ligand)
chain: B1 chain with A120N
notes: Homotrimer; also called hOX40Ligand; hOX40L double glycosylation mutant
B11: human OX40L F180A in the N90D, N114D background, residues 51-183 (ligand)
chain: B1 chain with A120N, F134A
notes: as for B6
B12: human OX40L N166A in the N90D, N114D background, residues 51-183 (ligand)
chain: B1 chain
notes: as for B6

molecular target: T1, human OX40 receptor (hOX40), residues …; experiment: competition ELISA (biotinylated hOX40 pre-incubated with mutant, unbound receptor captured on mOX40L-coated plate)

Row | binding result | Binder
1 | no binding | B1
2 | no binding | B2

molecular target: T1, human OX40 receptor (hOX40), residues …; experiment: competition ELISA, alanine mutant against the N90D, N114D reference

Row | fold change in IC50 [fold] | Binder
3 | ≥ 3 | B3
4 | ≥ 3 | B4

molecular target: T2, human OX40 receptor (hOX40), residues …; experiment: competition ELISA; relative to hOX40L N90D, N114D

Row | Fold-change in IC50 (Mutant/N90D, N114D) [fold] | Binder
5 | 2.2 | B5
6 | 8.6 | B6
7 | 2.2 | B7
8 | 6.9 | B8
9 | 3 | B9

molecular target: T2, human OX40 receptor (hOX40), residues …; experiment: competition ELISA; hOX40L in solution with biotinylated hOX40, unbound receptor captured on plate-coated mOX40L (competitor)

Row | IC50 [nM] | Binder
10 | 139 | B5
11 | 537 | B6
12 | 139 | B7
13 | 425 | B8
14 | 186 | B9
15 | 62 | B10

molecular target: T2, human OX40 receptor (hOX40), residues …; experiment: competition ELISA; mutant in solution with biotinylated hOX40, unbound receptor captured on mOX40L-coated plate (N.D.: no detectable competition)

Row | binding result | Binder
16 | no binding | B11
17 | no binding | B12
